This is an account of results in patent publication US20120149881A1.

Usually Kd stands for a measure of binding affinity in units of concentration. Read a low Kd as a tighter complex.

The target of the test is human IgE with the M1′ sequence (long form of membrane IgE) expressed on transduced BJAB or Daudi cells (human) (UniProt P01854). The experiment in a line: number printed in the titration panel; FIG. 3M calls these numbers 'Scatchard Results' (BJAB-Long cells).
Sequence of human IgE with the M1′ sequence (long form of membrane IgE) expressed on transduced BJAB or Daudi cells (human) (P01854 116-546 I515L limits assumed): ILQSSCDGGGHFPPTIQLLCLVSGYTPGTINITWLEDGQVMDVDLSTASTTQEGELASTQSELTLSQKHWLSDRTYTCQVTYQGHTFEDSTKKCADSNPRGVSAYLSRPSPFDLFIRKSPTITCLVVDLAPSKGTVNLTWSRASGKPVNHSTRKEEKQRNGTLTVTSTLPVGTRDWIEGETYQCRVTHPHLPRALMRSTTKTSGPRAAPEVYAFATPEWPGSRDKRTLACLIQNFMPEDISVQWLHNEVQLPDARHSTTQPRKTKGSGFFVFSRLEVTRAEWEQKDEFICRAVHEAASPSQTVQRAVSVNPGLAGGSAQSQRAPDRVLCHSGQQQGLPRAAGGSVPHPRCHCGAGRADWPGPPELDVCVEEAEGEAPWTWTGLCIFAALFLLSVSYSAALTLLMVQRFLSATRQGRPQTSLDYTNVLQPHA

anti-human IgE antibody MAE11 came in with a dissociation constant (Kd) of 0.04 nM.
